For 8 molecules, koff, kon and t½ results are on record in patent US20240173426A1 (Regeneron, published 2024).

Common to all, as to test: SPR (Biacore), captured mAb, 25 C
The target in assay [1] is T1, human FGFR3b expressed with a C-terminal myc-myc-hexahistidine tag (hFGFR3b.mmH) (human).
T1 construct: monomeric; also called REGN3152; monomeric human FGFR3b
T1 chain: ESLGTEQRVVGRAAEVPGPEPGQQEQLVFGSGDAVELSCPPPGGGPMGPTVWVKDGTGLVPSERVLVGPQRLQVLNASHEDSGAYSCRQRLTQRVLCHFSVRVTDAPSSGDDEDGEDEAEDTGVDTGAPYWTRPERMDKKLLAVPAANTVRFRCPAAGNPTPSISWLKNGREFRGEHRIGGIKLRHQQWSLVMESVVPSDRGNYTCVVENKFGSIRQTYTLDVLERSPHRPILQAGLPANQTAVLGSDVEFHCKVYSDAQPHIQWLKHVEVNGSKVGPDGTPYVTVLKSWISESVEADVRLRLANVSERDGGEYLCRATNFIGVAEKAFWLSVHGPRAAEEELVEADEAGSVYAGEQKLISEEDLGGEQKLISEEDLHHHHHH
The protocol:
(§1) The CM5 Biacore sensor surface was derivatized by amine coupling with a monoclonal mouse anti-human Fc monoclonal antibody (REGN2567). All Biacore binding studies were performed in a buffer composed of 0.01M HEPES pH 7.4, 0.15 M NaCl, 3 mM EDTA, 0.05% v/v Surfactant P20 (HBS-EP running buffer). […] Antibody-reagent association was monitored for 5 minutes while dissociation in HBS-EP running buffer was monitored for 10 minutes. At the end of each cycle, the anti-FGFR3 antibody capture surface was regenerated using a 10 sec injection of 20 mM phosphoric acid. All binding kinetics experiments were performed at 25° C.
(§2) The specific SPR-Biacore sensorgrams were obtained by a double referencing procedure. The double referencing was performed by first subtracting the signal of each injection over a reference surface (anti-hFc) from the signal over the experimental surface (anti-hFc-captured anti-FGFR3 antibodies) thereby removing contributions from refractive index changes. In addition, running buffer injections were performed to allow subtraction of the signal changes resulting from the dissociation of captured antibodies from the coupled anti-hFc surface. Kinetic association (kₐ) and dissociation (kd) rate constants were determined by fitting the real-time sensorgrams to a 1:1 binding model using Scrubber v2.0c curve fitting software.

The target in assay [2] is T2, human FGFR3c expressed with a C-terminal myc-myc-hexahistidine tag (hFGFR3c.mmH) (human, UniProt P22607 23-375).
T2 construct: monomeric; also called REGN3155; monomeric human FGFR3c
The protocol:
as §1, §2

Assay [3] deals with T3, cynomolgus FGFR3b expressed with a C-terminal myc-myc-hexahistidine tag (mfFGFR3b.mmH) (cynomolgus).
T3 construct: The name states R357G; also called REGN3521; mf FGFR3b ecto (R357G) (E23-G377;R357G).mmH
T3 chain: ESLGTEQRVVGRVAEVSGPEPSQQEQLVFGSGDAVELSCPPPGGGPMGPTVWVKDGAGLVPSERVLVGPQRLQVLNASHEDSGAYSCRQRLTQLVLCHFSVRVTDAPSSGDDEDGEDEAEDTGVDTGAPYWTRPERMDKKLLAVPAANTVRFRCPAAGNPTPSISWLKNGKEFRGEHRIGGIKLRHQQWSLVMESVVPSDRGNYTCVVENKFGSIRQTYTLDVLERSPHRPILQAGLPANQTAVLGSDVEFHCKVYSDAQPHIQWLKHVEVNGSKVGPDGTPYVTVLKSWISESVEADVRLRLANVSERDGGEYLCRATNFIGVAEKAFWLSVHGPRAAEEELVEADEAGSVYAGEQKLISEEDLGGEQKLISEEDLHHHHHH
The protocol: as §1, §2

Assay [4] concerns the target T4, human FGFR3b expressed with a C-terminal murine Fc tag (hFGFR3b.mFc) (human).
T4 construct: called dimeric; also called REGN3153; dimeric human FGFR3b
T4 chain: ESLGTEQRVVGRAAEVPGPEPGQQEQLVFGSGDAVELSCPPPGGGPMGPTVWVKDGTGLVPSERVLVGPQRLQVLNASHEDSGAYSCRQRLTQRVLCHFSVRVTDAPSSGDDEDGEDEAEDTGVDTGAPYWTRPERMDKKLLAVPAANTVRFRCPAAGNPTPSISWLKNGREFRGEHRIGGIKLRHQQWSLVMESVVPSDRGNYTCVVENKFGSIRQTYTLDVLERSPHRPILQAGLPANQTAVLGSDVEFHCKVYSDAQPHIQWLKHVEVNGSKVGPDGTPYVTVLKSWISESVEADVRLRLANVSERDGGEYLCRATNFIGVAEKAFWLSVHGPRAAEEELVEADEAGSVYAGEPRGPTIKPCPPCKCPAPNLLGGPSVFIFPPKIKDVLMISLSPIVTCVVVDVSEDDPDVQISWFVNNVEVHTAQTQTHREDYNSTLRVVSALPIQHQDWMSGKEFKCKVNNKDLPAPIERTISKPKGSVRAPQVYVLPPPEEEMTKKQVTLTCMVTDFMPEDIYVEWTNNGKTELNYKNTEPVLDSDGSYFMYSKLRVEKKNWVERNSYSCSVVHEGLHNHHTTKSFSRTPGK
The protocol:
as §1, §2

In assay [5] the target is T5, murine FGFR3b expressed with a C-terminal myc-myc-hexahistidine tag (mFGFR3b.mmH) (mouse).
T5 construct: monomeric; also called REGN3215; monomeric murine FGFR3b
T5 chain: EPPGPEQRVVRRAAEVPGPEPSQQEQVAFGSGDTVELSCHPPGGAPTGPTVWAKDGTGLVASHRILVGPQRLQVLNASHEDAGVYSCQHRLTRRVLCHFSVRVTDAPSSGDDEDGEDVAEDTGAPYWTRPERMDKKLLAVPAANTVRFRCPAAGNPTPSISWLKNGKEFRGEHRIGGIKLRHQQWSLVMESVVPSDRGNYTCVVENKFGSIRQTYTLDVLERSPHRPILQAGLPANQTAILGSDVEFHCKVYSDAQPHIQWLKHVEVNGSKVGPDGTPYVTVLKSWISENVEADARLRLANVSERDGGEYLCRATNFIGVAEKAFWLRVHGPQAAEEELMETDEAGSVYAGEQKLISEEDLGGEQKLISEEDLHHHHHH
The protocol: as §1, §2

B1: anti-FGFR3-hIgG1 comparator (REGN6331) (antibody, V domains shown)
VH: EVQLVESGGGLVQPGGSLRLSCAASGFTFTSTGISWVRQAPGKGLEWVGRIYPTSGSTNYADSVKGRFTISADTSKNTAYLQMNSLRAEDTAVYYCARTYGIYDLYVDYTEYVMDYWGQGTLVTVSS
VL: DIQMTQSPSSLSASVGDRVTITCRASQDVDTSLAWYKQKPGKAPKLLIYSASFLYSGVPSRFSGSGSGTDFTLTISSLQPEDFATYYCQQSTGHPQTFGQGTKVEIKR
notes: Human IgG1 comparator; also called COMP6331; anti-FGFR3 comparator antibody
In assay [1], B1 registered a koff of 0.000616 s⁻¹, an association rate constant (kon) of 883000 M⁻¹ s⁻¹ and a t½ of 18.8 min. Further, in assay [2], the koff was determined as 0.00132 s⁻¹, the kon is 544000 M⁻¹ s⁻¹ and the t½ was 8.77 min.

B2: H4H30095P2 (antibody, human IgG4 S228P, kappa, V domains shown)
VH: QVQLVQSGVEVKKPGASVKVSCKASGYTFKFYGISWVRQAPGQGLEWMGWISVYNGKTKYAQKLQGRVTMTTDTSTSTAYMELRSLRSDDTAVYFCARDGDYESSGYPFDYWGQGTLVTVSS
VL: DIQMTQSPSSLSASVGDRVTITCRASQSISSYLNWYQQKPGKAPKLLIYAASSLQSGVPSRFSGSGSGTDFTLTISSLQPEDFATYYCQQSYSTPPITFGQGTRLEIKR
B2: the t½ in assay [1] stood at 2.3 min; in assay [3], 2.6 min; in assay [2] it was 2.5 min; in assay [4] it was 117 min.

B3: H4H30102P2 (antibody, human IgG4 S228P, kappa, V domains shown)
VH: EVQLVESGGDLVQPGGSLRLSCAASGFTFSSYEMNWVRQAPGKGLEWVSYISNSGSTIYYADSVKGRFTISRDNAETSLYLQMNSLRAEDTAVYYCAREGWGAYCAGDCYSGFDIWGQGTMVTVSS
VL: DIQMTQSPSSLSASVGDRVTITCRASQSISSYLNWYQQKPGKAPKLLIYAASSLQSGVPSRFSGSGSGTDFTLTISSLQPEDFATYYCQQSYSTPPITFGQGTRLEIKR
As for B3, in assay [3], the t½ came out at 50.2 min.

B4: H4H30117P2 (antibody, human IgG4 S228P, kappa, V domains shown)
VH: QVQLVQSGAEVKKPGSSVKVSCKASGDTFSNYVIGWVRQAPGQGLEWMGGIIPIFGTTNYAQQFQGRVTITTDESTSTAYMELSSLRSEDTAVYYCARDGNYGDYFDYWGQGTLVTVSS
VL: not shown
On to B4, for which the t½ came to 1.8 min in assay [1], 1.3 min in assay [3], 1.6 min in assay [2] and 87 min in assay [4].

B5: H4H30061P (antibody, human IgG4 S228P, kappa, V domains shown)
VH: EVQLVESGGGLAQPGGSLKLSCEASGFTFSDSAMHWVRQASGKGLEWVGRIRSKANSYATGYAASVKGRFTISRDDSKNMAFLEMNSLKTEDTAVYYCLRQTYGDPWGQGTLVTVSS
VL: DVVMTQSPLSLSVTLGQPASISCRSSLSLVYSDGNNYLNWFQQRPGQSPRRLLYKVFNRDSGVPDRFSGSGSGTDFTLKISRVEAEDVGVYYCMQGTHWPWTFGQGTKVEIKR
For the molecule B5, the t½ was 132 min in assay [1], 118 min in assay [3], 146 min in assay [2] and at least 1160 min in assay [4].

B6: H4H30045P (antibody, human IgG4 S228P, kappa, V domains shown)
VH: QVQLVQSGAEVKKPGASVKVSCKTSGYRFVNYGFSWVRQAPGQGLEWMGWISPYNGNTNYIQNLQDRITMTTDTSTNTAYMELTNLRSDDTAVYYCATLTGVHFDYWGQGTLVTVSS
VL: AIQMTQSPSSLSASVGDRVTITCRASQGIRNDLGWYQQKPGKAPNLLIFETSRLQSGVPSRFSGSGSGTDFTLTINSLQPEDFATYYCLQDYNYPWTFGQGTKVEIKR
Take B6: the t½ in assay [1] came out at 1.9 min; in assay [3], 1.3 min; in assay [2], 1.5 min; in assay [4], 71.8 min.

B7: H4H30063P (antibody, human IgG4 S228P, kappa, V domains shown)
VH: QVQLQESGPGLVKPSETLSLTCTVSGDSINSYFWSWIRQLPGKELEWIGHIYSSGSTRYNPSLQSRVTISIDTSKNQFSLKLSSVTAADTAVYYCARGASAVDYWGQGTLVTVSS
VL: EIVLTQSPGTLSLSPGERATLSCRTSQSISSGYLAWYQQKPGQAPRLLIYGASRRATGIPDRFSGSGSGTDFTLTISRLEPEDFVVYYCQQYGSSPYTFGQGTKLEIKR
notes: Tested as whole antibody; also called anti-FGFR3b antibody H4H30063P
As to B7, the t½ was 302 min in assay [1], 275 min in assay [3], 416 min in assay [5] and at least 1160 min in assay [4].

B8: H4H30108P2 (antibody, human IgG4 S228P, kappa, V domains shown)
VH: QVQLVQSGAEVKKPGASVKVSCKASGYTFNSYDVNWVRQATGQGLEWMGWMNPHSGNTGYAQKFQGRVTMTRDTSTSTSYMELSSLTSEDTAVYYCARGPFSLLSAEFFQHWGQGTLVTVSS
VL: not shown
In the case of B8, the t½ in assay [1] stood at 72.6 min; in assay [3], 85.2 min; in assay [5], 5.8 min.

For orientation: koff means the first-order rate constant of dissociation. Usually kon stands for a measure of how fast the partners come together. Low readings indicate slower complex formation, high ones faster complex formation. As usually defined, the t½ is how long it takes for the measured level to halve.
